In the nanobody polyreactivity screen of Harvey et al. (2022):

Experiment: yeast display, Sf9 membrane polyspecificity reagent, FACS + sequencing; frameworks hold sequencing errors
How it was run: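 Galactose-induced (36–48 hours) yeast carrying a synthetic nanobody display library were exposed to 10% biotinylated, detergent-solubilized Sf9 membrane reagent at 4 °C for 1 hour. FACS followed streptavidin microbead enrichment, using low and high (top ~1%) gates for expression (anti-HA) and reagent binding (streptavidin). Colony PCR, MiSeq 2 × 250 sequencing and CDR-length filtering followed. Labels for polyreactivity reflect the gate of origin.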

Sequence	polyreactivity (PSR sort gate)
QVQLVESGGGLVQAGGSLRISCASSGSIFVINAMGWYRQAPGKERELVAAIDWGGDTTYYADSVKGRFTISRDNAKITVYLQMNSLKPEDTAVYYCAADLFLWYEFEYWGQGTQVTVSS	high polyreactivity
QVQLVESGGGLVQAGGSLRLSCAASGRTFTKYAKGWYRQAPGKERELVAAISNSGGSTFYADSVKGRFTISRDNAKNTVYLQMNSLKPEDTAVYYCAVDLGDTQYVPFDYWGQGTQVTVSS	low polyreactivity
QVQLVESGGGLVQAGGSLRLSCAASGSIYTNAMGWYRQAPGKERELVAAISKRGGSTNYADSVKGRFTISRDNAKNTVYLQMNSLKPEDTAVYYCNRTGSTGYVQVWRPGDYWGQGTQVTVSS	high polyreactivity
QVQLVESGGGLVQAGGSLRLSCAASGSIFTVYAMGWYRQAPGKERELVAAIRRTGSRTYYADSVKGRFTISRDNAKNTVYLQMNSLKPEDTAVYYCAADGWYDRRSVRLNYWGQGTQVTVSS	high polyreactivity
QVQLVESGGGLVQAGGSLRLSCAASGSTFPHYAMGWYRQAPGKERELVAAISWSGSSTYYADSVKGRFTISRDNAKNTVYLQMNSLKPEDTAVYYCNILPRRAPQFTYDYWGQGTQVTVSS	high polyreactivity
QVQLVESGGGLVQAGGSLRLSCAASGRIFDANAMGWYRQAPGKERELVAAITSSGGRTYYADSVKGRFTISRDNAKNTVYLQMNSLKPEDTAVYYCARAGRSWDTLYKYYLEHDYWGQGTQVTVSS	low polyreactivity
QVQHVESGGGLVQAGGSLRLICAASGITFHYYAMGWYRQAPGKDRELVAAISSGGRTNYADSVKGRFTISRDNAKNTVYLQMNCLKPEDTAVYYCAGVYFGGYTATVYYWGQGTQVTVSS	high polyreactivity
QVHLVESGGGLVQAGGSLLLSCSASGSIFTFNAMGWYRQAPGKERELVAAISSGGNTYYADSEKGRFTISRDNAKNSVYLQMNSLKPEDTAVYYCAAVRRTDGDGKYYYWGQGTEVTVSS	high polyreactivity
QVQLVESGGGLVQAGGSLSLSCAASGTFYGNTMGWYRQAPGKERELVAVISIDGSTNYADSVKGRFTISRDNAKNTVYLQMNCLKPEDTAVYYCNARNQWRTVGKYDYWGQGTQVSVSS	low polyreactivity
QVQLVESAGGLVQAGGSLRLSCAASGSTFAYNVMGWYRQAPGKERELVASISSSSGSTYYADSVKGRFTISRDNAKNTVYLQMNSLKPEDTAVYYCATYPAYTEYDYWGQGTQVTVSS	high polyreactivity
QVQLVESGGGLVQAGGSLRLSCAASGSTFYYNAMGGYRQAPGKEWELVATITSAGRTNYADSVKGRFTISRVNAKNTDYLQMNSLKPEDTAVYYCNARYRLSRYNYWGQGTQVTVSS	low polyreactivity
QVQLVESGGGLVQAGGSLSLSCDASGSTFYYNAMGWYRQAPGKERELVAAITFTGGSTYADSVKGRFTISRDNAKNTVYLQMNSLKPEDTAVYYCSATIQGHDYLGTGYDYWGQGTQVTVSS	low polyreactivity
QVQLVESGGGLVQPGGSLRLSCAASGFILYGNAMGWYRQAPGKERELVAAISRRGGSTYYADSVKGRFTISRDNAKNTVYLQMNSLKPEDTAVYYCAKDGPGGGTRIYDYWGQGTQVTVSS	high polyreactivity
QVQLVESGGGIVQAGGSLRLSSAASGRIFDGYTKGWYRHEPGKERQLVAAITYRSGRTYYADSVKGRFTISRDNAKNTVYLQMHSLKPDDTAVYYCAAPWYRGGNTESYYWGQGTQVTVSS	high polyreactivity
QVQLVESGGGLVQAGGSLRLSCAASGSTFDYYAMGWYRQAPGKERELVAAIRWSSGRTYYADSVKGRFTISRDNAKNTVYLQMNSLKPEDTAVYYCAARARGRYKRVALDYWGQGTQVTVSS	high polyreactivity
QVQLQERAGGLVQAGGSLRQRCSASGYISCDASMGWYRQAPGKERELAASITKGSSTKYADIVKGRFTFRDNAKNTVYLKMNSLKPEDTAVCYCAVTYPYWGDYTYWGQGTQVTVSS	low polyreactivity
QVQLVESGGGLVQAGGSLRLSCAASGFIFYYAMGWYRQAPGKERELVAGITESDGSTNYADSVKGRFTISRDNAKNTVYLQMNSLKTEVTAVYYCAKDASSLRFDYWGQGTQVTVSS	low polyreactivity
QVQLVESGGGLVQAGGSLRLSCAASGFIFEWYTMGWYRQAPGKERELVARISSDGSTTYADSVKGRFTISRDNAKNTVYLQMNSLKPEDTAVYYCAADVTYPGLKYIFDYWGQGTQVTVSS	low polyreactivity
QVQLVESGGGLVQAGGSLRLSCASSRNIFYLYAMGWYRQAPGKEREFSTSYADSEKGRFTISRDNAKNTVYLQMNSLKPEDTAVYYCAAYNSRGPYYYLFDYWGQGSQVTVSS	low polyreactivity
QVQLIESGGGLVQAGGSLRLSCAASGIIFRTYAMGWYRQAPGKERELVAAITSGGSTNYADSVKGRFTISRDNAKNTVYLQMNSLKPEDTAVYYCAARTYTSRYSYGYWGQGTQVTVSS	high polyreactivity
QVQLGESGGGLVQAGGSLRLSCAASGRTFLKNALGWYRPAPGKERELVAAITSGGSTNYADSVKGRFTISRDNAKNTVYFQMNCLKPEDTAVYYCAAEYTYGSPYDYWGQGTQVTVSS	low polyreactivity
QVQLVESGGGLVQAGGSLRLSCAASGIILYPNAMVWYRQAPGKERELVAGITRSGVSTYYADSVKGRFTISRDNAKNTVYLQMNSLNPEDTAVYYCAKDRIYGSKGEDDDYWGQGTQVTVSS	low polyreactivity

Sequence	polyreactivity (PSR sort gate)
QVQLQESGGGLVQAGGSLRQSYAASGYIFPSLAMGWYRQAPGKEREFVAAIGRGSTNNYEDSVKGRFTISRDNAKNTAYQQMNRLKPEDTAVYYCAAAASPLTRDLYWGQGTQVTVSS	low polyreactivity
QVQLVESGGGLVQAGGSLRLSCAASGSIFFSNAMGWYSPAPGKEREIVAGIRSGGITNYADSVKGRFTISRDNAKNTVYLEMNSLKPEDTAVYYCAKLNDHGRYAYAFDYWGQGTQVTVSS	low polyreactivity
QVKLVESGGGLVQAGGSLRLSCAASGLTFRSYAMRWYRQAPGKERELVAAITRSGGSTYYADSVKGRFTISRDNAKNTVYLQMNRLKPEDTAVYYCAADYGRTLTGGDYWGQGTKVTVSS	high polyreactivity
QVQLVESGGGLVQAGGSLRLSCAASGITFKVYAMGWYRQAPRKEREFVAAITYSGGRTYYADSVKGRFTISRDNAKNTVYLQMNSLQPEDTAVYYCAKEYGIYTDTPYYYWGQGTQVTVSS	low polyreactivity
QVQLVESGGGLVQAGGSLRLSCAASGFTFRWYAIGWYSQAPGKEREFVATISTRGGNTYYADSVKGRFTISRDNAKNTVYLQMNSLKPEDTAVYYSAAVGYAAYHRMDYWGQGTQVNVSS	high polyreactivity
QVQLVESGGGLVQAGGSLRLSCAASGRIFAPYAMGWYRQAPGKEWQLVAAIRTSGGRTYYADSVKGRFTISRDNAKNTVYLQMNSLKPEDSAVYYCAPLAWSTGRTTTVYDYWGLGTQVTVSS	high polyreactivity
QVQLVESGGGLVQAGGSLRLSCAASGQIFSRYAMGWSRQAPGNERELVAAITWSGGRTYYADSVKGRFTISRDNAKYTVYLQMNSLKAEDTAVYYCAATRYPLPEYYWGQGTQGTVSS	high polyreactivity
QVQLVESGGGLVQAGGSLRLSCAASGNTFVLYAMGWYRQAPGKERELVAAINNGGSTYADSVKGRFTISRDNAKNTVYLQMNSLKPEDTAVYYCAARYQVGVYWRRYYWGQGTQVTVSS	high polyreactivity
QVQLVESGGGLVQAGGSHRLSCAASGSTVGRNAMGWYGQAPGKERELVAAITASGGTTYYADSVKGRFTISRDNAKNTVYLQMNSLKPEDTAVYYCARAGHFSFKYDYWGQGTQVTVSS	low polyreactivity
QVQLVESGGGLVQAGGSLRLSCAASGRTFKYNTMGWYRQAPGKEREFVAAINWSGGSTYSAASVKGRFTISRDNAKNTVYLQMNSLKPEDTAVYYCAARRVYLGEYDYWGQGTQVTVSS	high polyreactivity
QVQLVESGGGLVQAGGSLRLSCAASGRTFRVYAMGWYRQAPGKERELVAAITGSGDSTYYADSVKGRFTISRDNAKYTVYLQMNSLKPEDTAVYYCNAVYRSTFDYWGQGTQVTVSS	high polyreactivity
LVQLVESGGGLVQAGGSLRLSCAASGNIFVSYAMGWYRQAPGKERELVAAISKSGGSTYYADSVKGRFTISRDNAKNTVYLQMNSLKPEDTAVYDCAARWYNRVKYQKFNYWGQGTQVTVSS	high polyreactivity
QVQLVESGGGLVQAGGSLRLSCAACGSTFYGHAMGWYRQAPGKRELVAAITWSGGSTYYADSVKGRFTISRDNAKNTVYLQMNSLKPEDTAVYYCAADRRNNNGASGTRLDYWGQGTQVTVSS	low polyreactivity
QVLLVESGGGLVQAGGSLRLSCAASGYIFNRYVMGWTIQAPGKERELVAAIYIRGGSTFYSDSVKGCFTISRDNAKYTVYLQMNSLKPDDSAVYYCDDGRYGDYGYWGQGTQLTVSS	high polyreactivity
QVQLVESGGGLVQAGGSLRLSCAASGFTFIRYAMGWYRQAPGKERELVASISNRGGRTYYADSVKGRFTISRDNAKNTVYLQMNSLKPEDTAVYYCAAGYSYAQYSYPFLSFAFGYWGQGTQVTVSS	high polyreactivity
QVQLVESGGGLVQAGGSLRLSCAASGRIFRRYAMGWYRQAPGKEREFVAAITKSGGSTYYADSVKGRFTISRDNAKNTVYLQMNSLKPEDTAVYYCATYPQYYFGYDYWGQGTQVTVSS	high polyreactivity
QVQLVESGGGLVQAGGSLRLSCAASGNTFHPYAMGWYRQAPGKERELVAAITKSGGSTYYADSVKGRFTISRDNAKNTVYLQMNSLKPEDTAFYYCAAESYIEYYLKYDYWGQGSQVTVSS	low polyreactivity
QVQLVESGGGLVQAGGSLRLSCAASGNIFVGNAMGWYRQAPGKERELVAAIRRSGGTTYYADSVKGRFTISRDIAKNTVYIQMNSLKPEDTAVYYSAASRPYQGDYWGQGTQVTVSS	low polyreactivity
QVQLVESGGGLVQAGGSLRLSCAASGRIIAVNAKGWYRQAPGKERELVAAINGGGSTNYADSVKGRFTISRDNAKNTVYLQMNSLKPEDTAVYYCAADVGWRSQTRGYYWGQGTQVTVSS	high polyreactivity
QVQLVESGGGLVQAGGSLRLSCAASGFTFSNYAMGWYRQAPGKERELVAAISRSGGSTYYADSVKGRFTISRDNAKNTVYLQMNSLKPEDTAVYYCNADRYRVWYRRYDYWGQGTQVTVSS	high polyreactivity
QDQLVESGGGFVQAGGSLRLSCAASGFTFGSNTMGWSRQAPGKERELVAAITTSGDSTYYADSVKGRFTLSRDNAKNTVYLQMNSLKPEDTAVYDCAARRGYPRFEYWGQGTQVTVSS	high polyreactivity
